Where two headings read alike, the source gives them in different places. Non-standard residues stand in square brackets, D forms with d. Residues, ends and D or L forms follow the SMILES beside them. No end group written: not given here. Abu = CC[C@H](N)C(=O)O
How the values were obtained:
[1] = target: T1, elastase (Boehringer, 1027891) (Sus scrofa, UniProt P00772); experiment: Elastase inhibition assay (chromogenic substrate SAAAP, 405 nm); format: biochemical; settings: for inhibition of elastase activity: SAAAP substrate, 25° C., 30 minutes; for specific (elastase) activity: IU = quantity reducing hydrolysis of SAAAP with 1 μmol/min at pH 8.3 and 25° C.
T1 construct: purchased Boehringer 1027891
T1 sequence (P00772 27-266): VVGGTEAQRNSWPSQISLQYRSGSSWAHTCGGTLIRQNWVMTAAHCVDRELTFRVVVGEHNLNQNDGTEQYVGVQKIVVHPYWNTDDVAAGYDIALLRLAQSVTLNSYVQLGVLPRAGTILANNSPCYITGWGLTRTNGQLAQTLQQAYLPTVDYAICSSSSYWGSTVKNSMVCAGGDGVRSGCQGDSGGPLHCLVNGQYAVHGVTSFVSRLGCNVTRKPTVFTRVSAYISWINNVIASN
Method: 2. Prior lyophilized base material underwent solubility tests after resuspension of the base material in 1) 0.1M Acetic Acid, 2) 50% Acetic Acid and 3) 0.1M Ammoniumbicarbonate and after centrifugation of the various suspensions, supernatants and pellets (after resuspension). Thereafter these were tested on the presence of protein by analytical sequence analysis (Edman degradation with automated sequenator Applied Biosystems, Model 477A) (Edman, 1956; Ilse & Edman, 1963), by applying protocolls, reagentia, chemicals and materials from Applied Biosystems (Warrington, UK and Foster City, Calif., USA) (Hewick, et al, 1981).It was investigated if biologic activity included anti-elastase as the described "auto-antibiotic effect" of A. hydrophila. Therefore, tests on inhibition of elastase activity were executed with dried samples of 20 μl of supernatant and resuspension of pellet of the base material on elastase (Boehringer) and SAAAP (Fluka) as chromogenic substrate, and 0.1 M Tris/HCl pH 8.2 as assay buffer. Based on the results obtained with the different solutions, and the inhibition of elastase, it was decided to use 0.1 M Hac as solution for the lyophilized base material and thereafter as eluens for gel filtration.
The principle of the assay resides in inhibition of elastase (Boehringer, 1027891) activity on the chromogenic substrate SAAAP (Fluka, nr. 85975) as measured at 405 nm spectophotometrically by monitoring release of the p-nitro-aniline group during substrate digestion.
Assay buffer: 0.1M Tris/HCl pH 8.2, 1M NaCl.
Elastase: 40 μg/ml in H2 O.
Substrate: 1.0 mM SAAAP in H2 O.
Glacial Acetic Acid 50%: diluted in H2 O.
Reaction in tubes (Eppendorf), containing 100 μl assay buffer, 50 μl sample elastase inhibitor, 50 μl elastase solution was started by addition of SAAAP (25 μl, 1 mM) and incubated at 25° C. for 30 minutes. Thereafter the reaction was stopped by addition of 25 μl 50% Glacial Acetic Acid. The Absorbance of released p-nitroaniline was read at 405 nm.
International units (IU) are defined as that quantity which reduces the enzymatic hydrolysis of SAAAP with 1 μmol/min at pH 8.3 and 25° C.

Trypsin [2] = experiment: Trypsin inhibition assay (BAPNA); format: biochemical; settings: for trypsin inhibition: BAPNA, 37° C.
Method: An assay was developed for determination of the activity of this Trypsin inhibitor. In analogy with the elastase inhibition assay the preparation of the solution was as follows:
Trypsin, Type II-S soybean trypsin inhibitor (Sigma T 9128) and BAPNA (Sigma B 3279). This was further optimized to: trypsin solution: 120 μg/ml; BAPNA solution 10 mM; Trypsin inhibitor 100 μg/ml and incubation at 37° C. All other details were equal with the elastase inhibition assay.
(§1) Elastase inhibitory activity of Fahsin was measured by inhibition of the release of the p-nitroanilide group from the synthetic substrate N-succinyl-(Ala) 3-p-nitroanilide (SAAAP) (Calbiochem), catalyzed by pancreatic elastase and human neutrophil elastase respectively. Chymotrypsin inhibition activity of Fahsin was measured by the use of the synthetic substrate S-2586 (Kabi Vitrum). […] of Fahsin was measured by the use of the synthetic substrate S-2238 (Kabi Vitrum). pepsin activity of Fahsin was measured by the use of a haemoglobin substrate. Trypsin inhibition activity was determined using the BAPNA assay. Plasmin inhibition activity of Fahsin was related with the Trypsin inhibition activity and measured by the use of the chromogenic substrate D-Val-Leusyl-Lys-pNA (Othodiagnostics).

[3] = Method: Stability of the molecule was tested
a) by boiling it in water at 100° C. for 30 minutes.
b) by immersion in 50% acetic acid at room temperature during one night, and
c) by immersion in 0.1M HCl in the same conditions.
The samples were consequently assayed with the elastase inhibition assay, as were blancs without inhibitor.

[4] = target: elastase (Boehringer, 1027891)
[5] = target: elastase (Boehringer, 1027891); remark: listed apart in the source
trypsin [6] = target: trypsin
plasmin = plasmin (Homo sapiens, UniProt P00747); experiment: Plasmin inhibition (chromogenic substrate D-Val-Leusyl-Lys-pNA); format: biochemical
plasmin, sequence (P00747 581-810 limits assumed, species assumed): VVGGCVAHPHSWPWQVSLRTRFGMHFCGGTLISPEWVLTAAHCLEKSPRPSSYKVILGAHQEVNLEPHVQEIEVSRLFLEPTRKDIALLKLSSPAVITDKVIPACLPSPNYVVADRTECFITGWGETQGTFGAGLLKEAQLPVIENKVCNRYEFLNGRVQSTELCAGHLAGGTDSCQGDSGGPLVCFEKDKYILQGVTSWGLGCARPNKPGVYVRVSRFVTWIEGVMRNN
plasmin, sequence (P00747 97-580 partner limits assumed, species assumed): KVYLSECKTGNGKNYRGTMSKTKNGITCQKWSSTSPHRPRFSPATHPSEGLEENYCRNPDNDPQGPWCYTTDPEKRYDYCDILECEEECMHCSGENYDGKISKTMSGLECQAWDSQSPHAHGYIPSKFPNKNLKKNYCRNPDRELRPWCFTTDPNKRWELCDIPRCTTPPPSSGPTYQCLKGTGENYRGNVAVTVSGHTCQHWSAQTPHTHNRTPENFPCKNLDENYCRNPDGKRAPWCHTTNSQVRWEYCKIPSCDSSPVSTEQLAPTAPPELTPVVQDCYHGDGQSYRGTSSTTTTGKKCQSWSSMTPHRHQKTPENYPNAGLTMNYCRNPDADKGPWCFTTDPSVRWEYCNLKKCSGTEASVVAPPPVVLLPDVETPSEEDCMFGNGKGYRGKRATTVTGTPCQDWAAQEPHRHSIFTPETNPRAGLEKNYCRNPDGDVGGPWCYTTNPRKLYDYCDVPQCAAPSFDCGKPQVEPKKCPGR
Method: as §1

For `CC[C@H](NC(=O)[C@H](CCCNC(=N)N)NC(=O)[C@@H](NC(=O)[C@@H]1CCCN1C(=O)[C@@H](NC(C)=O)[C@@H](C)O)[C@@H](C)CC)C(=O)N[C@@H](CC(C)C)C(=O)N[C@H](C(=O)N[C@@H](Cc1ccccc1)C(=O)N[C@@H](CC)C(=O)N1CCC[C@H]1C(=O)N[C@@H](CC(N)=O)C(=O)NCC(=O)N[C@@H](Cc1ccccc1)C(=O)N[C@@H](C)C(=O)N[C@H](C(=O)N[C@@H](CC(=O)O)C(N)=O)C(C)C)[C@@H](C)CC` [Synthetic peptide I, N-Acetyl-TPIRAbuLIFAbuPNGFAVD-amide] (Ac-TPIR[Abu]LIF[Abu]PNGFAVD-NH2), the “inhibition of elastase activity” value [1] was “dose-dependent inhibition of elastase activity” and the “specific effectivity (elastase inhibition), factor less than the native molecule” value ([1]; relative to native molecule) was ~5,000.

With `CC[C@H](NC(=O)[C@H](CCCNC(=N)N)NC(=O)[C@@H](NC(=O)[C@@H]1CCCN1C(=O)[C@@H](NC(C)=O)[C@@H](C)O)[C@@H](C)CC)C(=O)N[C@@H](CCCNC(=N)N)C(=O)N[C@H](C(=O)N[C@@H](Cc1ccc(O)cc1)C(=O)N[C@@H](CC)C(=O)N1CCC[C@H]1C(=O)N[C@@H](CCCCN)C(=O)NCC(=O)N[C@@H](Cc1ccccc1)C(=O)N[C@@H](CCC(=O)O)C(=O)N[C@H](C(=O)N[C@@H](CC(=O)O)C(N)=O)C(C)C)[C@@H](C)CC` [Synthetic peptide II, N-Acetyl-TPIRAbuRIYAbuPKGFEVD-amide] (Ac-TPIR[Abu]RIY[Abu]PKGFEVD-NH2) the trypsin inhibition (Trypsin [2]) was “dose-dependent inhibition of trypsin activity” and the “specific effectivity (trypsin inhibition), factor less than the native molecule” value (Trypsin [2]; relative to native molecule) was ~1,500.

With “DDNCGGKVCSKGQLCHDGHCECTPIRCLIFCPNGFAVDENGCELPCSCKHQ (cysteine pairing not given here) [peak 8]” the “specific (elastase) activity” value [1] was 1.7 IU/mg, the “inhibition of elastase activity” value [1] was “showed inhibition of elastase” and the “stability: elastase inhibiting activity after treatment” value ([3]; 0.1M HCl at room temperature during one night) was “no significant decrease of inhibiting activity”. The “stability: elastase inhibiting activity after treatment” value ([3]; 50% acetic acid at room temperature during one night) was “no significant decrease of inhibiting activity” and the “stability: elastase inhibiting activity after treatment” value ([3]; boiling in water at 100° C. for 30 minutes) was “no significant decrease of inhibiting activity”.

For “peak 7: single molecule isoform from Limnatis nilotica, 5494.4 D, partial sequence in b92, elastase inhibitor (DDDCGGQVCSKGQLCHDGHCECTPIRCLIYCPNFVDE)”, the “specific (elastase) activity” value [1] was 1.2 IU/mg and the “inhibition of elastase activity” value [1] was “showed inhibition of elastase”.

Work on DDDCGGQVCSKGQLCHDGHCECTPIRCLIYCPNFVDE [FAHSIN E 1] yielded a specific (elastase) activity, inhibition of SAAAP hydrolysis [4] of 1.2 IU/mg.

B1: Synthetic linear peptide N-Acetyl-TPIRAbuLIFAbuPNGFAVD-amide (I) (peptide)
peptide: Ac-TPIR[Abu]LIF[Abu]PNGFAVD-NH2
SMILES: CC[C@H](NC(=O)[C@H](CCCNC(=N)N)NC(=O)[C@@H](NC(=O)[C@@H]1CCCN1C(=O)[C@@H](NC(C)=O)[C@@H](C)O)[C@@H](C)CC)C(=O)N[C@@H](CC(C)C)C(=O)N[C@H](C(=O)N[C@@H](Cc1ccccc1)C(=O)N[C@@H](CC)C(=O)N1CCC[C@H]1C(=O)N[C@@H](CC(N)=O)C(=O)NCC(=O)N[C@@H](Cc1ccccc1)C(=O)N[C@@H](C)C(=O)N[C@H](C(=O)N[C@@H](CC(=O)O)C(N)=O)C(C)C)[C@@H](C)CC
In the case of B1, the specific effectivity against the native molecule [5] is reported as 5000 factor less.

B2: Synthetic linear peptide N-Acetyl-TPIRAbuRIYAbuPKGFEVD-amide (II) (peptide)
peptide: Ac-TPIR[Abu]RIY[Abu]PKGFEVD-NH2
SMILES: CC[C@H](NC(=O)[C@H](CCCNC(=N)N)NC(=O)[C@@H](NC(=O)[C@@H]1CCCN1C(=O)[C@@H](NC(C)=O)[C@@H](C)O)[C@@H](C)CC)C(=O)N[C@@H](CCCNC(=N)N)C(=O)N[C@H](C(=O)N[C@@H](Cc1ccc(O)cc1)C(=O)N[C@@H](CC)C(=O)N1CCC[C@H]1C(=O)N[C@@H](CCCCN)C(=O)NCC(=O)N[C@@H](Cc1ccccc1)C(=O)N[C@@H](CCC(=O)O)C(=O)N[C@H](C(=O)N[C@@H](CC(=O)O)C(N)=O)C(C)C)[C@@H](C)CC
Molecule B2 has a specific effectivity against the native molecule (trypsin [6]) of 1500 factor less.

B3: peak 5: 1:1 mixture of 2 peptides, 5377.2 and 5435.5 Dalton, SEQ ID NO:5 or 6, trypsin inhibitor (protein)
chain 1: DDDCGGQVCSKGQLCVDGQCKCTPIRCRIYCPKGFEVDENGCELPCTCKQ
chain 2: DGNCGGQVCSKGQLCVDGQCKCTPIRCRIYCPKGFEVDENGCELPCTCKQ
For B3, the “specific (elastase) activity” value [1] was “less than 0,06 IU/mg”, the “inhibition of elastase activity” value [1] was “did not show anti-elastase activity” and the trypsin inhibition (Trypsin [2]; listed as Fahsin T 1-2) was “strongly active”. The trypsin inhibition (Trypsin [2]; listed as Fraction 5) was “strong trypsin inhibition”, the “trypsin inhibitory activity compared with the fractions corresponding to peaks 7, 8 and/or 9” value (Trypsin [2]; ratio to peaks 7, 8 and/or 9) was “at least twenty times higher” and the inhibition of plasmin (plasmin) was “strongly active”.

B4: peak 9: isoform found to be a mixture of two molecules, 5385.5 and 5454.1 D, partial sequence in b93 (protein)
chain 1: DDDCGGKVCSKGQLCVDGHCECTPIRCLIYCPNGFAVENGC
chain 2: DGNCGGQVCSKGQLCVDGQCKCTPIRCLIYCPNGFAVENGC
In the case of B4, the “specific (elastase) activity” value [1] is reported as 0.95 IU/mg and the “inhibition of elastase activity” value [1] is reported as “showed inhibition of elastase”.

Source: patent publication US6239106A, “Family of protease inhibitors, and other biologic active substances” (Clodica, S.A., priority 1994, dated 2001)
